Results as given in patent US20260151519A1 (AKTIS ONCOLOGY, published 2026).
Primed or numbered codes have the meaning given here. Where no end group is shown, it is not given here. [ ]: non-standard residue; d: D form. The star is where a group is joined. Biotin = O=C1N[C@H]2[C@H](CS[C@H]2CCCCC(=O)*)N1; Lys(Me3) = C[N+](C)(C)CCCC[C@H](N)C(=O)O; PEG4′ = not defined here

Tests used:
[1] = molecular target: T1, Human Nectin-4 expressed on cells (human, UniProt Q96NY8 32-510); test: flow cytometry dose response, biotinylated C253 detected with Strep-PE, Delta MFI = C253 MFI minus vehicle MFI, HT-1376-P cells
T1 construct: Endogenous on HT-1376 cells; also called endogenous Nectin-4 on HT-1376 cells; cell surface Nectin-4
T1 sequence: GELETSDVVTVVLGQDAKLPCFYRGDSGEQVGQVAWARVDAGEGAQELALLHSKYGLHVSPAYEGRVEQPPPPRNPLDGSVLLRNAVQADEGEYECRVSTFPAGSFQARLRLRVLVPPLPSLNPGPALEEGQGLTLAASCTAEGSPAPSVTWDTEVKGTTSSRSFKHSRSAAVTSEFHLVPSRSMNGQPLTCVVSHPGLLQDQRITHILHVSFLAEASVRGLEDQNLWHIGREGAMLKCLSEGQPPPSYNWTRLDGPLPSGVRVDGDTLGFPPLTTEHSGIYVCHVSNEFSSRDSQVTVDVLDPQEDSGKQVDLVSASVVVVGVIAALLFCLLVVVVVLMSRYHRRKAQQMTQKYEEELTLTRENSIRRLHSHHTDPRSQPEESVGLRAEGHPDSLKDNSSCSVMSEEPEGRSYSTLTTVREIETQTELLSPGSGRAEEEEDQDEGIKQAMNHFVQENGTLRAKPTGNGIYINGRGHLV
Procedure: Fluorescent imaging for Nectin-4 binding was conducted using assays as described in Example 3. Briefly, Nectin-4 knockout HT-1376 cells were generated via CRISPR/Cas9 mediated gene deletion followed by single cell cloning. […] Flow cytometry was performed to measure on-target binding to cell surface Nectin-4. […]

[2] = molecular target: T1, Human Nectin-4 expressed on cells; test: DELFIA competition against 10 nM C307, HT-1376 cells
Procedure: (§1) A competition binding assay was utilized to determine the Kᵢ for miniproteins bound to Nectin-4 expressed on the surface of cancer cells. […] Miniprotein incubations occurred for 90 min to reach binding equilibrium. […] After miniprotein incubations, the wells were washed to remove unbound ligand and treated according to manufacturer instructions for a DELFIA® (dissociation-enhanced lanthanide fluorescent immunoassay, Revvity Health Sciences). In brief, washed wells were incubated with 15 μL of 2 M HCl for 2 h at 37° C., after which 17 μL of 2 M NaOH and 30 μL of DELFIA® enhancement solution were added to each well and incubated for an additional 30 min. The remaining Eu reacted with the DELFIA® enhancer solution to generate fluorescence measured on the Envision instrument. Relative fluorescence units (RFUs) were measured as a function of test article concentration in order to calculate an IC50. The Ki can then be calculated using the Cheng-Prusoff equation for converting a measured IC50 to Ki: […]

[3] = molecular target: T1, Human Nectin-4 expressed on cells; test: competition binding assay (DELFIA, fluorescence at 615 nm) on HT-1376 cells: 12 concentrations of C253 against 10 nM Eu-labelled C307 as the displaced tracer
Procedure: as §1

SLC22A23 = molecular target: T2, SLC22A23 (human, UniProt A1A5C7 1-686); test: cell microarray on HEK293 cells
T2 construct: whole, on cells
T2 sequence (looked up): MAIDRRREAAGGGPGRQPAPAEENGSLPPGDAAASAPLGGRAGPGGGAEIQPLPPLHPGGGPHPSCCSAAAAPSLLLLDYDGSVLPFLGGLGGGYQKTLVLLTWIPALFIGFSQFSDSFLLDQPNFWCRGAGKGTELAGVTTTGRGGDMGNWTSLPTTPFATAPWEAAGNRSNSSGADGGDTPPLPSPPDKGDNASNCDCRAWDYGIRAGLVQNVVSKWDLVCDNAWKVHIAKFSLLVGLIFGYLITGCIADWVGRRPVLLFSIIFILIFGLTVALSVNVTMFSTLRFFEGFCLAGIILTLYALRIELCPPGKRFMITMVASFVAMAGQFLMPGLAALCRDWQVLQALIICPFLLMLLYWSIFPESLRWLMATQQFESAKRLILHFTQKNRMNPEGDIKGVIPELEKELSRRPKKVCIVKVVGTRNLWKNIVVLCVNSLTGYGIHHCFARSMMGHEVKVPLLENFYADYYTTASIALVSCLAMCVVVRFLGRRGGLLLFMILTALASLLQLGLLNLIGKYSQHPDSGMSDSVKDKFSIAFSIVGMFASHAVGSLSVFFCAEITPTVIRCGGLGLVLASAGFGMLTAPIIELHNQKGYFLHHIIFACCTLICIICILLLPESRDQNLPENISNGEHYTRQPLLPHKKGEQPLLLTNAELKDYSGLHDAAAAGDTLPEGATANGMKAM
Procedure: (§2) Initially, two pools of compounds were tested. […] To perform this assay, HEK293 cells were plated on a dish and localized spots of cells were transiently over-expressed with a single cDNA encoding for GFP and one of the 6,416 targets. Included in this library were multiple clones for the Nectin family members, including plasma membrane, non-tethered secreted, and tethered secreted forms of Nectin-1, 2, 3, and 4. Secreted protein targets were tethered to the plasma membrane to aid in detection. The molecule pools were incubated on the fixed, over-expressing cell microarrays (n=2 per protein), and binding was visualized using Alexa Fluor 647 streptavidin fluorescence.

IGF1 = molecular target: T3, IGF1 (human, UniProt P05019 49-118); test: cell microarray on HEK293 cells
T3 construct: whole, on cells; Secreted targets were tethered to the plasma membrane
Procedure: as §2

Human Nectin-4 = molecular target: T4, Human Nectin-4 (human, UniProt Q96NY8 32-349, limits assumed); test: Table 2B (DELFIA or SPR)
T4 construct: Protein immobilised on the SPR chip; also called target protein
T4 sequence: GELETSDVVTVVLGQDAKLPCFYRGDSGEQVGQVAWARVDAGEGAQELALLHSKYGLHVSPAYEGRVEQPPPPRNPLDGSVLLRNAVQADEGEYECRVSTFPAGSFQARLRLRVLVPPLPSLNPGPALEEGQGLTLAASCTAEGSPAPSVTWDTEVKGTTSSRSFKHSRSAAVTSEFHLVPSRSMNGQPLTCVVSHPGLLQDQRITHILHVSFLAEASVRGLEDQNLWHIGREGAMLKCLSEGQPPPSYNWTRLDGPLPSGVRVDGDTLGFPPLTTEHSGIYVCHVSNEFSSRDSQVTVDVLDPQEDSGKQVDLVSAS

T3 sequence (P05019 49-118): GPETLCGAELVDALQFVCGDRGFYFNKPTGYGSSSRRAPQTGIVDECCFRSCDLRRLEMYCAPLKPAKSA

{Biotin-PEG4′}-CEYDEEFFTALARLRGGDICQYIQA[Lys(Me3)]FQYLPALCIEEILDNLGCS (designed binder, cysteine pairing not given here) [C253]
EC50 (read off the curve) [1]: ~0.8 nM
Ki [2]: 0.82 nM
IC50 (read off the curve) [3]: ~2 nM
binding result (SLC22A23): no binding (tested: 2 µg/mL)
binding result (IGF1): no binding (tested: 2 µg/mL)

{Biotin-PEG4′}-CDYDEQFFTALKRLRGADICEYIQASFQYLPGECIEEILDNLGCS (designed binder, cysteine pairing not given here) [C208]
Kd (Human Nectin-4): 1.02 nM
binding result (SLC22A23): no binding (tested: 2 µg/mL)
binding result (IGF1): no binding (tested: 2 µg/mL)

{Biotin-PEG4′}-CDYDEQFFTALKRLRGGDICEYIQASFQYLPGLCIEEILDNLGCS (designed binder, cysteine pairing not given here) [C190]
Kd (Human Nectin-4): 0.71 nM
binding result (SLC22A23): no binding (tested: 2 µg/mL)
binding result (IGF1): no binding (tested: 2 µg/mL)

{Biotin-PEG4′}-CEYDEQFFTALKRLRGDDICDYIQASFQYLPGLCIEEILDNLGCS (designed binder, cysteine pairing not given here) [C197]
Kd (Human Nectin-4): 0.97 nM
binding result (SLC22A23): no binding (tested: 2 µg/mL)
binding result (IGF1): no binding (tested: 2 µg/mL)

{Biotin-PEG4′}-CDYDEQFFTALARLRGADICEYIQASFQYLPGECIEEILDNLGCS (designed binder, cysteine pairing not given here) [C247]
binding result (SLC22A23): no binding (tested: 2 µg/mL)
binding result (IGF1): no binding (tested: 2 µg/mL)
